Assay results taken from paper PMC5231407.
Values joined by “and” are separate entries in the source; they are usually repeats but may differ in a detail not shown here. Equal values may be shown once.

Experiments:
[1] = target: LapD^TMcys lacking sfGFP (non-fluorescent; C304A, C397S) (Pseudomonas fluorescens Pf0-1) (UniProt Q3KK31); assay: SEC-MALS; apo protein, ~10 mg/ml (~140 μM), Superdex 200 10/300; 25 mM Tris-HCl pH 7.6, 250 mM NaCl, 0.005% LMNG, 0.04% CHAPS; protein-conjugate analysis
[2] = target: LapD–sfGFP (native LapD with C-terminal monomeric superfolder GFP) (Pseudomonas fluorescens Pf0-1) (UniProt Q3KK31); assay: as above
[3] = target: LapD^TMcys-A602C lacking sfGFP (non-fluorescent) (Pseudomonas fluorescens Pf0-1) (UniProt Q3KK31); assay: as above
[4] = target: LapD (Pseudomonas fluorescens Pf0-1), full-length, non-fluorescent, detergent-solubilized (Pseudomonas fluorescens Pf0-1) (UniProt Q3KK31); assay: as above
[5] = target: LapD (Pseudomonas fluorescens Pf0-1), full-length, non-fluorescent, detergent-solubilized (Pseudomonas fluorescens Pf0-1) (UniProt Q3KK31); assay: SEC-MALS; LapD (~28 μM) incubated with 100 μM c-di-GMP, concentrated ~5-fold; 20 μM c-di-GMP in the mobile phase
[6] = target: LapG labeled with Oregon Green 488 maleimide at C135 (Pseudomonas fluorescens Pf0-1); assay: fluorescence polarisation; fluorescence anisotropy; 1 µM Oregon Green 488-labeled LapG fixed, detergent-solubilized LapD titrated 1–36 µM; without c-di-GMP; apparent
[7] = target: LapD (Pseudomonas fluorescens Pf0-1), full-length, non-fluorescent, detergent-solubilized (Pseudomonas fluorescens Pf0-1) (UniProt Q3KK31); assay: SEC-MALS; LapD incubated with LapG and c-di-GMP; c-di-GMP omitted from the mobile phase
[8] = target: LapD (Pseudomonas fluorescens Pf0-1), full-length, non-fluorescent, detergent-solubilized (Pseudomonas fluorescens Pf0-1) (UniProt Q3KK31); assay: SEC-MALS; LapD incubated with 100 μM c-di-GMP and a 3-fold molar excess of LapG over LapD dimer, concentrated; 20 μM c-di-GMP in the mobile phase
[9] = target: LapG labeled with Oregon Green 488 maleimide at C135 (Pseudomonas fluorescens Pf0-1); assay: fluorescence polarisation; fluorescence anisotropy; 1 µM Oregon Green 488-labeled LapG fixed, detergent-solubilized LapD titrated 1–36 µM; with 100 µM c-di-GMP; apparent

LapD^TMcys lacking sfGFP (non-fluorescent; C304A, C397S) (from UniProt Q3KK31 1-648) (receptor)
stoichiometry N [1]: 2

LapD–sfGFP (native LapD with C-terminal monomeric superfolder GFP) (from UniProt Q3KK31 1-648) (receptor)
stoichiometry N [2]: 2

LapD^TMcys-A602C lacking sfGFP (non-fluorescent) (from UniProt Q3KK31 1-648) (receptor)
stoichiometry N [3]: 2

LapD (Pseudomonas fluorescens Pf0-1), full-length, non-fluorescent, detergent-solubilized (from UniProt Q3KK31 1-648) (receptor)
stoichiometry N [4]: 2 | stoichiometry N [5]: 4 and 2 | Kd [6]: 11.7 µM | stoichiometry N [7]: 2 | stoichiometry N [8]: 4 | Kd [9]: 1900 nM
